Measured values reported in patent US20220363718A1 (Bicycle, published 2022).
*1 amine or outer side, *2 acyl side, *3 side chain or, on linkers, in order; H or OH if unused. Bridges are numbered along the chain shown (N, C = ends). Where no end group is shown, it is not given here. [ ]: non-standard residue; d: D form. TATA = O=C(CC[*:1])N1CN(C(=O)CC[*:2])CN(C(=O)CC[*:3])C1; Trp(1-Me) = Cn1cc(C[C@H](N)C(=O)O)c2ccccc21; Arg(Me2a) = CN(C)C(=N)NCCC[C@H](N)C(=O)O; Lys(Me3) = C[N+](C)(C)CCCC[C@H](N)C(=O)O; Phe(4-F) = N[C@@H](Cc1ccc(F)cc1)C(=O)O; 1Nal = N[C@@H](Cc1cccc2ccccc12)C(=O)O; Ala(cPent) = N[C@@H](CC1CCCC1)C(=O)O; Ala(cPr) = N[C@@H](CC1CC1)C(=O)O; tBuAla = CC(C)(C)C[C@H](N)C(=O)O; NMeA = CN[C@@H](C)C(=O)O

Each binder was assayed against T1, Biotinylated human TSLP (human, biotinylated) (assay: SPR, biotinylated hTSLP on streptavidin chip).
T1 construct: also called hTSLP; thymic stromal lymphopoietin
T1 sequence (chain, as listed by the source limits assumed): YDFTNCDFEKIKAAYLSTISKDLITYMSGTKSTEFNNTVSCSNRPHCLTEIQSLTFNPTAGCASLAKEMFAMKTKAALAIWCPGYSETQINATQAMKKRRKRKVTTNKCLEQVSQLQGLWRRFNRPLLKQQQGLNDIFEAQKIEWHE

| Kd [nM] | Binder |
| --- | --- |
| 47 | ACQWLEDCWRGFCDDAHAP (linker 2-8-13 via TATA) [Example 55] |
| 100 | Ac-CQWLEDCW[Lys(Me3)]GFC (linker 1-7-12 via TATA; not fully specified (C-terminus)) [Example 81] |
| 85 | SPPCVWLDDCWRGFCA (linker 4-10-15 via TATA) [Example 73, listing 1 of 2 here] |
| 9.7 | CQWLEDCWRGXC (not fully specified; N-term acetyl; CQWLEDCWRG[3,4diFPhe]C as printed; 3 Cys on TATA) |
| 91 | CQWLEDCWRGXC (not fully specified; N-term acetyl; CQWLEDCWRG[3-MePhe]C as printed; 3 Cys on TATA) |
| 43 | Ac-ACQWLEDCWRGFCPLD (linker 2-8-13 via TATA; not fully specified (C-terminus)) |
| 93 | CQWLEDCWRGXC (N-term acetyl; CQWLEDCWRG[4-CF3Phe]C as printed; 3 Cys on TATA) [Example 77] |
| 100 | Ac-CQW[Ala(cPr)]EDCWRGFC (linker 1-7-12 via TATA; not fully specified (C-terminus); printed as CQW[CproA]EDCWRGFC) [Example 80] |
| 62 | CQWLEDCXRGXC (N-term acetyl; CQWLEDC[4-ClNal]RG[4-FPhe]C as printed; 3 Cys on TATA) [Example 60] |
| 92 | ACHWLEDCWRGFCHLE (linker 2-8-13 via TATA; not fully specified (C-terminus)) [Example 75, listing 1 of 2 here] |
| 19 | CQWLEDCWRGXC (not fully specified; N-term acetyl; CQWLEDCWRG[3,4,5triFPhe]C as printed; 3 Cys on TATA) [Example 37] |
| 65 | ACTWLEDCWRGFCADS (linker 2-8-13 via TATA) [Example 63, listing 1 of 2 here] |
| 46 | Ac-CQWLEDCWRGFCAPDERD (linker 1-7-12 via TATA) [Example 54] |
| 62 | SDEQRTCQWLEDCWRGFCA (linker 7-13-18 via TATA) [Example 61] |
| 82 | ETNNLECQWLEDCWRGFCA (linker 7-13-18 via TATA) [Example 71] |
| 70 | Ac-CQW[Ala(cPent)]EDCWRGFC (linker 1-7-12 via TATA) [Example 65] |
| 12 | CQXLEDCWRGXC (not fully specified; N-term acetyl; CQ[Nal1]LEDCWRG[4-FPhe]C as printed; 3 Cys on TATA) |
| 24 | CQWLEDCWRGXC (not fully specified; N-term acetyl; CQWLEDCWRG[3-F,4-ClPhe]C as printed; 3 Cys on TATA) [Example 41] |
| 11 | CQWLEDCWRGXC (not fully specified; N-term acetyl; CQWLEDCWRG[4-BrPhe]C as printed; 3 Cys on TATA) [Example 26] |
| 93 | ACTWLDDCWRGFCA (linker 2-8-13 via TATA) |
| 20 | CQXLEDCWXGXC (not fully specified; N-term acetyl; CQ[Nal1]LEDCW[ADMA]G[4-FPhe]C as printed; 3 Cys on TATA) [Example 38] |
| 63 | CAXLEDCWXGXC (N-term acetyl; CA[Nal1]LEDCW[Harg]G[4-FPhe]C as printed; 3 Cys on TATA) [Example 62] |

What follows are binders tested against TSLP (as used in the human PBMC assay) (UniProt Q969D9 29-159) (assay: cell-based or functional assay).

| CCL17 % Inhibition @ 10 µM, 666 pM TSLP [%] | CCL17 % Inhibition @ 10 µM, 50 pM TSLP [%] | CCL17 % Inhibition @ 10 µM, 400 pM TSLP [%] | Binder |
| --- | --- | --- | --- |
| -18 | – | – | Ac-CQWLEDCWRGFC (linker 1-7-12 via TATA) [Example 79] |
| – | 89 | – | Ac-C[NMeA][Trp(1-Me)][tBuAla]QDC[Trp(1-Me)][Arg(Me2a)]G[Phe(4-F)]C (linker 1-7-12 via TATA) [Example 18] |
| 52 | – | – | Ac-CQW[tBuAla]EDCWRGFC (linker 1-7-12 via TATA; not fully specified (C-terminus); printed as Ac-CQW[tBuA]EDCWRGFC) [Example 44] |
| 24 | – | – | ACTWLEDCWRGFCADS (linker 2-8-13 via TATA) [Example 63, listing 2 of 2 here] |
| 47 | < 20 | – | ACQWLEDCWRGFCADGDML (linker 2-8-13 via TATA) [Example 42] |
| – | 71 | – | CQWLEDCWRGXC (not fully specified; Ac-CQWLEDCWRG[4F3ClPhe]C; 3 Cys cyclised with TATA) [Example 8] |
| – | 47 | – | CQWXEDCWRGXC (not fully specified; Ac-CQW[tBuA]EDCWRG[4-FPhe]C; 3 Cys cyclised with TATA) [Example 4] |
| -4 | – | – | SHVCRDLDPWTCDSWWLCA (linker 4-12-18 via TATA) [Example 188] |
| 33 | – | – | ACQWLEDCWRGFCA (linker 2-8-13 via TATA) [Example 68] |
| 40 | – | – | TMEYRDCQWLEDCWRGFCA (linker 7-13-18 via TATA) [Example 56] |
| – | 71 | – | Ac-C[NMeA][1Nal][tBuAla]QDC[Trp(1-Me)][Arg(Me2a)]G[Phe(4-F)]C (linker 1-7-12 via TATA; not fully specified (C-terminus)) [Example 25] |
| 43 | – | – | CQWLEDCWRGXC (not fully specified; Ac-CQWLEDCWRG[3-MePhe]C; 3 Cys cyclised with TATA) |
| – | 61 | 62 | Ac-C[NMeA][1Nal][tBuAla]QDC[Trp(1-Me)][Arg(Me2a)]G[Phe(4-F)]C[dA] (linker 1-7-12 via TATA; not fully specified (C-terminus)) [Example 29] |
| – | 1 | – | CQWLEDCWRGXC (not fully specified; Ac-CQWLEDCWRG[4-FPhe]C; 3 Cys cyclised with TATA) [Example 17] |
| 36 | – | – | YATTQVCRDLDPWTCSSWWLCA (linker 7-15-21 via TATA) [Example 171] |
| 14 | – | – | CQWLEDCWRGXC (not fully specified; Ac-CQWLEDCWRG[3-ClPhe]C; 3 Cys cyclised with TATA) [Example 32] |

| CCL17 % Inhibition @ 10 µM, 666 pM TSLP [%] | CCL17 % Inhibition @ 10 µM, 50 pM TSLP [%] | CCL17 % Inhibition @ 10 µM, 400 pM TSLP [%] | Binder |
| --- | --- | --- | --- |
| 0 | – | – | GTDSAECQWLEDCWRGFCA (linker 7-13-18 via TATA) [Example 45] |
| 2 | – | – | ACQWLEDCWRGFCSSSDQS (linker 2-8-13 via TATA) [Example 59] |
| -2 | – | – | ACHWLEDCWRGFCHLE (linker 2-8-13 via TATA; not fully specified (C-terminus)) [Example 75, listing 2 of 2 here] |
| – | 41 | – | CQWLEDCWRGXC (not fully specified; Ac-CQWLEDCWRG[3,4diFPhe]C; 3 Cys cyclised with TATA) |
| 47 | – | – | ACRDLDPWTCSSWWLCADGLYDA (linker 2-10-16 via TATA) [Example 193] |
| 33 | – | – | AHPCADLDPWTCPNWWLCA (linker 4-12-18 via TATA; not fully specified (C-terminus)) [Example 165] |
| 33 | – | – | CQWLEDCWRGXC (not fully specified; Ac-CQWLEDCWRG[Nal2]C; 3 Cys cyclised with TATA) [Example 50] |
| -11 | – | – | SPPCVWLDDCWRGFCA (linker 4-10-15 via TATA) [Example 73, listing 2 of 2 here] |
| -7 | – | – | CQWLEDCWRGXC (not fully specified; Ac-CQWLEDCWRG[Nal1]C; 3 Cys cyclised with TATA) [Example 47] |
| -1 | – | – | ACRDLDPWTCSSWWLCANV (linker 2-10-16 via TATA) [Example 186] |
| -3 | – | – | ACDWHWEYDCWLSCA (linker 2-10-14 via TATA) [Example 199] |
| 11 | – | – | RAPCPDLDPWTCSDWWLCA (linker 4-12-18 via TATA) [Example 187] |
| 0 | – | – | ACTWLDDCWRGFCA (linker 2-8-13 via TATA; not fully specified (C-terminus)) |
| 33 | – | – | CQXLEDCWRGXC (not fully specified; Ac-CQ[Nal1]LEDCWRG[4-FPhe]C; 3 Cys cyclised with TATA) |
| -2 | – | – | Ac-ACQWLEDCWRGFCPLD (linker 2-8-13 via TATA) |
| 0 | – | – | ACRDLDPWTCSSWWLCA (linker 2-10-16 via TATA; not fully specified (C-terminus)) [Example 164] |
